According to paper PMC10325834, “Characteristics of Mycobacterium tuberculosis PtpA interaction and activity on the alpha subunit of human mitochondrial trifunctional protein, a key enzyme of lipid metabolism” (Frontiers in Cellular and Infection Microbiology, 2023):

B1: recombinant alpha subunit of human mitochondrial trifunctional protein, Y271F mutant (enzyme)
chain: not shown
notes: also called hTFPα-Y271F; source: E. coli BL21 (DE3), purified (Ni-NTA, TEV cleavage, SEC)
B2: recombinant alpha subunit of human mitochondrial trifunctional protein, wild type (enzyme)
chain: not shown
notes: also called hTFPα; hTFPα-wt; source: E. coli BL21 (DE3), purified (Ni-NTA, SEC on Superdex 200)

Target: the molecule itself
Assay: SEC; Superdex 200 16/60 preparative grade; 50 mM Tris-HCl pH 8.0, 100 mM NaCl, 5% glycerol, 0.1% Tween 20; apparent molecular weight from a calibration curve

Protein	stoichiometry N
B1	2
B2	2
